Experimental findings from publication PMC7359698 are described below.

For this test, the target named is ephrin-A1-S6 (human ephrin-A1 with an internal S6 peptide tag, GPI-anchored) (human) (UniProt P20827). As to the kind of experiment: FRET or BRET; heteroFRET by flow cytometry (sensitised emission, compensated; efficiency from median fluorescence intensities); live HEK293 cells in suspension in DPBS + 0.5% BSA, S6-tagged receptor labelled with A547 and A647; for T-cadherin-S6 also followed in time after 10 μg/mL adiponectin. On the technique in general: In BRET a luciferase serves as donor, and the signal depends on an acceptor being close.

In the case of “ephrin-A1-S6 (human ephrin-A1 with an internal S6 peptide tag, GPI-anchored) (from UniProt P20827 19-182) (ligand)”, the FRET efficacy worked out at 14%.
